How the values were obtained:
recombinant mouse-TIGIT = target: T1, recombinant mouse-TIGIT (mouse, UniProt P86176 29-148, limits assumed); experiment: ELISA
T1 sequence (looked up): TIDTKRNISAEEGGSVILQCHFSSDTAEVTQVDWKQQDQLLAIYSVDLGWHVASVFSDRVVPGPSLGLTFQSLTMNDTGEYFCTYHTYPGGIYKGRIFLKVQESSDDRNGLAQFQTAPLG

[1] = target: T2, human TIGIT stably expressed on cells (Jurkat; 293T) (human, UniProt Q495A1 22-244); experiment: cell-based or functional assay
T2 sequence: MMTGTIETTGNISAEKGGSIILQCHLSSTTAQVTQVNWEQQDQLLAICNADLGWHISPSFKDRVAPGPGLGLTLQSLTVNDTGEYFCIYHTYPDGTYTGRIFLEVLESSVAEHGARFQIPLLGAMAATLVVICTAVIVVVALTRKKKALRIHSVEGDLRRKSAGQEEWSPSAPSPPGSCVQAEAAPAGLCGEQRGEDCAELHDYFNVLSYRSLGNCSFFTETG

[2] = target: T2, human TIGIT stably expressed on cells …; experiment: cell-based or functional assay; remark: listed apart in the source
[3] = target: T2, human TIGIT stably expressed on cells …; experiment: whole cell binding, flow cytometry, n=3
[4] = target: T3, recombinant cynomolgus TIGIT (cyno-TIGIT ECD) (cynomolgus monkey, UniProt A0A7N9I9V4 89-209); experiment: ELISA on recombinant cyno-TIGIT
T3 construct: extracellular domain
T3 sequence (A0A7N9I9V4 entry or part of it): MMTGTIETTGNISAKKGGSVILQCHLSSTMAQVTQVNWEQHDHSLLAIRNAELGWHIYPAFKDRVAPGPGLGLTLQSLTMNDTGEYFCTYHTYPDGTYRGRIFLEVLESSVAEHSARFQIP

[5] = target: T4, recombinant human TIGIT extra cellular domain (ECD) protein (human, UniProt Q495A1 22-138); experiment: ELISA on recombinant human TIGIT ECD
T4 construct: Purchased protein; it begins with the signal peptide; also called h-TIGIT ECD; human TIGIT ECD
T4 sequence: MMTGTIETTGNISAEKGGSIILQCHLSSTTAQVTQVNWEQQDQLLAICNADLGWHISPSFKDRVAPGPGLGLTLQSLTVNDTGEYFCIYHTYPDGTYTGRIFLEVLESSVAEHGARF

[6] = target: T2, human TIGIT stably expressed on cells …; experiment: flow cytometry, whole cell binding assay on human TIGIT expressing cells (upper panel)

binding result (recombinant mouse-TIGIT): no binding | EC50, TIGIT blockade NFAT luciferase reporter assay [1]: 0.48 nM | EC50 (read off the curve); NFAT reporter activity (RLU), human TIGIT blockade reporter assay (lower panel) [2]: ~1 nM | EC50 [3]: 0.32 nM | EC50 (read off the curve) [4]: ~0.1 µg/mL | EC50 (read off the curve) [5]: ~0.1 µg/mL | EC50 (read off the curve) [6]: ~0.5 nM
B1: Bivalent 2A3 antibody (2A3-Fc), 2A3 VHH with human IgG1 CH2 and CH3 domains (Fc fusion)
chain: QVQLVESGGGVVQPGRSLRLSCAASGGSFSSYPMGWFRQAPGKERESVAAISSDMRFTYYADSVKGRFTISRDNSKNTLYLQMNSLRAEDTAVYYCAARDSGVGYYSRAQWYDYWGQGTLVTVSS
notes: Expressed in ExpiCHO, protein A purified; also called 2A3-Fc mAb; 2A3 clone; not shown: human IgG1 CH2 and CH3 domains

Source: patent US20230037911A1 (SHANGHAI HENLIUS BIOTECH, published 2023)
